Data on 125 sequences can be found in the supplement of paper PMC9112550, “Optimization of the antimicrobial peptide Bac7 by deep mutational scanning” (BMC Biology, 2022).

The test system of the data set is Escherichia coli TOP10. Description: shrunken log2 fold change of peptide-encoding DNA abundance (4.5 h post-induction vs induction); higher = less antimicrobial activity (less host growth inhibition). The following applies: time post-induction: 4.5 h; library: site-saturation at positions 5, 18, 19, 20.
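Note: peptides expressed intracellularly from a pBAD plasmid library in pooled LB shake-flask culture, induced with 0.3% L-arabinose, DNA abundance read by NGS, three biological replicates, DESeq2 with apeglm shrinkage.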

RRIRCRPPRLPRPRPRPDMKPRP: the “shrunken log2 fold change” value is -0.996. Turning to RRIRKRPPRLPRPRPRPDQHPRP, the “shrunken log2 fold change” value is -0.0427. As for RRIRDRPPRLPRPRPRPSTIPRP, the “shrunken log2 fold change” value is -0.295. RRIRRRPPRLPRPRPRPDAKPRP: the “shrunken log2 fold change” value worked out at 0.644. Take RRIRYRPPRLPRPRPRPRDEPRP: the “shrunken log2 fold change” value is 0.047. Turning to RRIRMRPPRLPRPRPRPTCQPRP, the “shrunken log2 fold change” value is -0.049.

As to RRIRNRPPRLPRPRPRPQMEPRP, the “shrunken log2 fold change” value is -0.191. Under RRIRFRPPRLPRPRPRPHVPPRP stands -0.315. Under RRIRRRPPRLPRPRPRPENRPRP stands 0.0232; under RRIRHRPPRLPRPRPRPLNVPRP, -0.588; under RRIRMRPPRLPRPRPRPLCDPRP, 1.11. On to RRIRWRPPRLPRPRPRPTHGPRP, for which the “shrunken log2 fold change” value was -0.0242.

Take RRIRKRPPRLPRPRPRPDLDPRP: the “shrunken log2 fold change” value was determined as 0.109. With RRIRCRPPRLPRPRPRPHQPPRP, the “shrunken log2 fold change” value came to 0.0495. As to RRIRARPPRLPRPRPRPQNSPRP, the “shrunken log2 fold change” value is -0.23. Regarding RRIRNRPPRLPRPRPRPFCSPRP, the “shrunken log2 fold change” value is -0.0765. Regarding RRIRWRPPRLPRPRPRPPLDPRP, the “shrunken log2 fold change” value worked out at 0.57. Under RRIRTRPPRLPRPRPRPLLTPRP stands -0.0897; under RRIRIRPPRLPRPRPRPDWNPRP, -0.993. For the sequence RRIRYRPPRLPRPRPRPCMTPRP, the “shrunken log2 fold change” value was -0.34. The same measure for RRIRHRPPRLPRPRPRPRKEPRP: -0.0122.

As to RRIRVRPPRLPRPRPRPILQPRP, the “shrunken log2 fold change” value is -0.399. As to RRIRQRPPRLPRPRPRPQDPPRP, the “shrunken log2 fold change” value was -0.239. On to RRIRFRPPRLPRPRPRPYVKPRP, for which the “shrunken log2 fold change” value was -0.787. For RRIRCRPPRLPRPRPRPKVRPRP, the “shrunken log2 fold change” value came out at 0.195. RRIRNRPPRLPRPRPRPMIWPRP: the “shrunken log2 fold change” value was -0.166. On to RRIRGRPPRLPRPRPRPMTPPRP, for which the “shrunken log2 fold change” value was 1.07.

For RRIRSRPPRLPRPRPRPQHCPRP, the “shrunken log2 fold change” value is -0.0942. As to RRIRCRPPRLPRPRPRPSAFPRP, the “shrunken log2 fold change” value turned out to be 0.426. For the sequence RRIRFRPPRLPRPRPRPAYYPRP, the “shrunken log2 fold change” value was -0.227.

For the sequence RRIRHRPPRLPRPRPRPTMGPRP, the “shrunken log2 fold change” value was found to be 0.144.

Take RRIRVRPPRLPRPRPRPYVRPRP: the “shrunken log2 fold change” value was -0.492. Turning to RRIRERPPRLPRPRPRPCREPRP, the “shrunken log2 fold change” value is -0.129. The same measure for RRIRERPPRLPRPRPRPWRNPRP: 0.0891; for RRIRLRPPRLPRPRPRPMENPRP: -0.105. Take RRIRGRPPRLPRPRPRPYANPRP: the “shrunken log2 fold change” value was determined as 0.0266. For RRIRERPPRLPRPRPRPAWQPRP, the “shrunken log2 fold change” value is -0.109. In the case of RRIRGRPPRLPRPRPRPVLWPRP, the “shrunken log2 fold change” value was found to be 1. Regarding RRIRPRPPRLPRPRPRPGLPPRP, the “shrunken log2 fold change” value came out at 0.0398.

Regarding RRIRVRPPRLPRPRPRPRTIPRP, the “shrunken log2 fold change” value is -0.0961. Under RRIRVRPPRLPRPRPRPPIDPRP stands 0.0721.

Take RRIRTRPPRLPRPRPRPPPWPRP: the “shrunken log2 fold change” value stood at 0.614. For the sequence RRIRMRPPRLPRPRPRPLIGPRP, the “shrunken log2 fold change” value is -0.0325. On to RRIRMRPPRLPRPRPRPCMRPRP, for which the “shrunken log2 fold change” value was found to be 0.889. With RRIRWRPPRLPRPRPRPQCHPRP, the “shrunken log2 fold change” value is -0.13. Take RRIRHRPPRLPRPRPRPEPMPRP: the “shrunken log2 fold change” value came out at 0.134.

For the sequence RRIRDRPPRLPRPRPRPLMDPRP, the “shrunken log2 fold change” value came out at 0.172. Take RRIRMRPPRLPRPRPRPSREPRP: the “shrunken log2 fold change” value amounted to 0.545. Under RRIRARPPRLPRPRPRPCRVPRP stands -0.19. For the sequence RRIRFRPPRLPRPRPRPRPEPRP, the “shrunken log2 fold change” value was 0.477. As to RRIRARPPRLPRPRPRPPMLPRP, the “shrunken log2 fold change” value worked out at 0.805. RRIRSRPPRLPRPRPRPITRPRP: the “shrunken log2 fold change” value is -0.221.

For RRIRLRPPRLPRPRPRPGPVPRP, the “shrunken log2 fold change” value was determined as 0.753.

As to RRIRIRPPRLPRPRPRPLYHPRP, the “shrunken log2 fold change” value is -0.761.

On to RRIRGRPPRLPRPRPRPRKNPRP, for which the “shrunken log2 fold change” value came out at 0.74. In the case of RRIRVRPPRLPRPRPRPRYQPRP, the “shrunken log2 fold change” value is 0.171. RRIRLRPPRLPRPRPRPRHHPRP: the “shrunken log2 fold change” value is -0.0411. The same measure for RRIRMRPPRLPRPRPRPTLVPRP: 0.171. For RRIRDRPPRLPRPRPRPHHKPRP, the “shrunken log2 fold change” value was -0.397. Turning to RRIRYRPPRLPRPRPRPRYCPRP, the “shrunken log2 fold change” value is -0.495. In the case of RRIRDRPPRLPRPRPRPPSAPRP, the “shrunken log2 fold change” value worked out at 0.506. On to RRIRCRPPRLPRPRPRPPHGPRP, for which the “shrunken log2 fold change” value was found to be 0.499. On to RRIRKRPPRLPRPRPRPDLSPRP, for which the “shrunken log2 fold change” value is -0.0341. Consider RRIRKRPPRLPRPRPRPDNSPRP, for which the “shrunken log2 fold change” value is -0.00848. For the sequence RRIRYRPPRLPRPRPRPPCNPRP, the “shrunken log2 fold change” value is -0.0594. For RRIRLRPPRLPRPRPRPREVPRP, the “shrunken log2 fold change” value was 0.59. Under RRIRMRPPRLPRPRPRPTRYPRP stands 0.628; under RRIRKRPPRLPRPRPRPAMCPRP, 0.059. With RRIRHRPPRLPRPRPRPHSNPRP, the “shrunken log2 fold change” value was -0.167. As for RRIRMRPPRLPRPRPRPKNGPRP, the “shrunken log2 fold change” value came to 0.0732. As to RRIRSRPPRLPRPRPRPKDNPRP, the “shrunken log2 fold change” value is -0.232. In the case of RRIRQRPPRLPRPRPRPQWRPRP, the “shrunken log2 fold change” value was found to be 0.419. Turning to RRIRQRPPRLPRPRPRPPVSPRP, the “shrunken log2 fold change” value is -0.203. With RRIRRRPPRLPRPRPRPHRYPRP, the “shrunken log2 fold change” value was -0.0438.

With RRIRRRPPRLPRPRPRPAMAPRP, the “shrunken log2 fold change” value came out at 0.342. With RRIRARPPRLPRPRPRPYRMPRP, the “shrunken log2 fold change” value was determined as 0.0568. RRIRWRPPRLPRPRPRPHRLPRP: the “shrunken log2 fold change” value was -0.0123. Under RRIRHRPPRLPRPRPRPKHFPRP stands 0.451.

RRIRGRPPRLPRPRPRPHTLPRP: the “shrunken log2 fold change” value is -0.22. For RRIRRRPPRLPRPRPRPRGAPRP, the “shrunken log2 fold change” value was determined as 0.8. Regarding RRIRMRPPRLPRPRPRPQACPRP, the “shrunken log2 fold change” value was -0.12. RRIRERPPRLPRPRPRPAEFPRP: the “shrunken log2 fold change” value came out at 0.00307. With RRIRVRPPRLPRPRPRPPMMPRP, the “shrunken log2 fold change” value is -0.0474. Under RRIRERPPRLPRPRPRPTNEPRP stands -0.676; under RRIRVRPPRLPRPRPRPCRGPRP, 1.11; under RRIRGRPPRLPRPRPRPNYNPRP, -0.262. For the sequence RRIRRRPPRLPRPRPRPQQAPRP, the “shrunken log2 fold change” value was determined as 0.115. Under RRIRYRPPRLPRPRPRPRPSPRP stands 0.0768. Consider RRIRQRPPRLPRPRPRPFVSPRP, for which the “shrunken log2 fold change” value is -0.216.

Take RRIRVRPPRLPRPRPRPAFRPRP: the “shrunken log2 fold change” value turned out to be 0.186.

On to RRIRARPPRLPRPRPRPDFFPRP, for which the “shrunken log2 fold change” value turned out to be 0.307. On to RRIRRRPPRLPRPRPRPRSLPRP, for which the “shrunken log2 fold change” value was -0.0226. As to RRIRIRPPRLPRPRPRPPICPRP, the “shrunken log2 fold change” value is -0.132.

Consider RRIRTRPPRLPRPRPRPFHSPRP, for which the “shrunken log2 fold change” value was -0.137. As for RRIRSRPPRLPRPRPRPLDTPRP, the “shrunken log2 fold change” value was -0.157.

Regarding RRIRERPPRLPRPRPRPKHMPRP, the “shrunken log2 fold change” value is -0.21.

Consider RRIRTRPPRLPRPRPRPAVPPRP, for which the “shrunken log2 fold change” value stood at 0.0514. With RRIRCRPPRLPRPRPRPPCLPRP, the “shrunken log2 fold change” value is -0.199. The same measure for RRIRTRPPRLPRPRPRPRMYPRP: 0.0541; for RRIRVRPPRLPRPRPRPICTPRP: -0.00144. As to RRIRGRPPRLPRPRPRPDTSPRP, the “shrunken log2 fold change” value was determined as 0.383. Regarding RRIRYRPPRLPRPRPRPLNKPRP, the “shrunken log2 fold change” value is -0.449. For RRIRPRPPRLPRPRPRPIHIPRP, the “shrunken log2 fold change” value is -0.405.

RRIRDRPPRLPRPRPRPMQVPRP: the “shrunken log2 fold change” value was 0.0758.

Turning to RRIRTRPPRLPRPRPRPGVPPRP, the “shrunken log2 fold change” value was found to be 0.202. With RRIRERPPRLPRPRPRPCQRPRP, the “shrunken log2 fold change” value stood at 0.0562. For RRIRARPPRLPRPRPRPYWMPRP, the “shrunken log2 fold change” value was -0.275.

With RRIRFRPPRLPRPRPRPHAAPRP, the “shrunken log2 fold change” value amounted to 0.062.

With RRIRDRPPRLPRPRPRPGHDPRP, the “shrunken log2 fold change” value stood at 0.207. Regarding RRIRRRPPRLPRPRPRPGYCPRP, the “shrunken log2 fold change” value is -0.0631.

On to RRIRERPPRLPRPRPRPDTVPRP, for which the “shrunken log2 fold change” value came to 0.37. As for RRIRHRPPRLPRPRPRPVSAPRP, the “shrunken log2 fold change” value turned out to be 0.0852. RRIRERPPRLPRPRPRPSSDPRP: the “shrunken log2 fold change” value is -0.164.

Consider RRIRRRPPRLPRPRPRPLAGPRP, for which the “shrunken log2 fold change” value came to 0.477. Take RRIRDRPPRLPRPRPRPQNTPRP: the “shrunken log2 fold change” value is -0.605. As for RRIRKRPPRLPRPRPRPDVFPRP, the “shrunken log2 fold change” value was -0.162. As for RRIRNRPPRLPRPRPRPDCRPRP, the “shrunken log2 fold change” value was -0.119.

As to RRIRPRPPRLPRPRPRPVEVPRP, the “shrunken log2 fold change” value was -0.0864. Regarding RRIRSRPPRLPRPRPRPWQGPRP, the “shrunken log2 fold change” value came out at 0.0115. For RRIRIRPPRLPRPRPRPKSLPRP, the “shrunken log2 fold change” value was 0.0615. As for RRIRRRPPRLPRPRPRPATDPRP, the “shrunken log2 fold change” value amounted to 0.204. On to RRIRSRPPRLPRPRPRPQGFPRP, for which the “shrunken log2 fold change” value is -0.0809. Regarding RRIRVRPPRLPRPRPRPRVRPRP, the “shrunken log2 fold change” value is 0.363. As for RRIRRRPPRLPRPRPRPPRDPRP, the “shrunken log2 fold change” value was found to be 1.48. RRIRYRPPRLPRPRPRPEPLPRP: the “shrunken log2 fold change” value stood at 0.0319.
